Source: paper PMC12208556, “Thrombospondin-1 inhibits alternative complement pathway activation in antineutrophil cytoplasmic antibody-associated vasculitis” (The Journal of Clinical Investigation, 2025)

Assays:
Details in all cases: both partners purified
complement C8 [1] = molecular target: T1, complement C8 (UniProt P07357 31-584; P07358 55-591; P07360 21-202); assay: SPR; BIAcore 3000; TSP-1 bound covalently to CM5 chips at 0.1 uM; complement proteins as analytes at 12.3, 37.03, 111.1, 333.3, 1,000 nM in PBS plus 0.05% Tween 20; 1:1 Langmuir binding model; average of 3 repeated measurements
T1 construct: source: bought: Complement Technologies; copies: + +
T1 sequence (P07357 31-584, chain 1 of 3): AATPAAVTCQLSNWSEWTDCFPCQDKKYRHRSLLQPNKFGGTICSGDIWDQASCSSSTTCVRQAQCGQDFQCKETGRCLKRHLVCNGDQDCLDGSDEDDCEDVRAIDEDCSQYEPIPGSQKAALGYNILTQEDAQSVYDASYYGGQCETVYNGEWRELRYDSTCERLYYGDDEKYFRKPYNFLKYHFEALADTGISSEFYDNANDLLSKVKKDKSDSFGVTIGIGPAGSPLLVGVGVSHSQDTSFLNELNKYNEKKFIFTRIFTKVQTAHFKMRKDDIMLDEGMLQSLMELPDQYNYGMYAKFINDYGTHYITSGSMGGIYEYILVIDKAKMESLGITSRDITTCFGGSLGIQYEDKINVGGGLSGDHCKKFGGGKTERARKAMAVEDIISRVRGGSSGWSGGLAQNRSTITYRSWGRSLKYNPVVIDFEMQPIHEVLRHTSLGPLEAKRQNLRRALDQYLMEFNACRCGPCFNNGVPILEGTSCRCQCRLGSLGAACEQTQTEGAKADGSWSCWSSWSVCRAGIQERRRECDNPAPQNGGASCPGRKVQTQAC
T1 sequence (P07358 55-591, chain 2 of 3): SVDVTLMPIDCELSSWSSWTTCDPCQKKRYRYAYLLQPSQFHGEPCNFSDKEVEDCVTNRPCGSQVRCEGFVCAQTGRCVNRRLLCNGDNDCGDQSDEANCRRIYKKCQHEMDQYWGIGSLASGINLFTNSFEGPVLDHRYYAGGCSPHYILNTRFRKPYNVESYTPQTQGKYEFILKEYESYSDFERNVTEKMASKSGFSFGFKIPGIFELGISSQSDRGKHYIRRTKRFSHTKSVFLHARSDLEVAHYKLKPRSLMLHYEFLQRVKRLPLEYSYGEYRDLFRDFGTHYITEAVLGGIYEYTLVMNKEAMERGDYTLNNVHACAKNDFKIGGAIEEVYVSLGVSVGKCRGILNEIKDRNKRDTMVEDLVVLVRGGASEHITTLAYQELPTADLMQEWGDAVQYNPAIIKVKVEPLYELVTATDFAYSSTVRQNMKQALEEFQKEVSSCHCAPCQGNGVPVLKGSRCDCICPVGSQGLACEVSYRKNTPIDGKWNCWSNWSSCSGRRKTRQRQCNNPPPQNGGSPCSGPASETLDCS
T1 sequence (P07360 21-202, chain 3 of 3): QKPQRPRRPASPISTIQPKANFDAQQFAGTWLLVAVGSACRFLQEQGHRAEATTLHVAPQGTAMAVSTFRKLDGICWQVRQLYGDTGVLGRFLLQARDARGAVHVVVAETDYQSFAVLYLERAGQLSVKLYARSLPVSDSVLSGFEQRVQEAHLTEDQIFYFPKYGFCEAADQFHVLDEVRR

complement factor H = molecular target: T2, complement factor H (UniProt P08603 19-1231); assay: as above
T2 construct: Complement factor H; also called FH; source: bought: Complement Technologies
T2 sequence (P08603 19-1231): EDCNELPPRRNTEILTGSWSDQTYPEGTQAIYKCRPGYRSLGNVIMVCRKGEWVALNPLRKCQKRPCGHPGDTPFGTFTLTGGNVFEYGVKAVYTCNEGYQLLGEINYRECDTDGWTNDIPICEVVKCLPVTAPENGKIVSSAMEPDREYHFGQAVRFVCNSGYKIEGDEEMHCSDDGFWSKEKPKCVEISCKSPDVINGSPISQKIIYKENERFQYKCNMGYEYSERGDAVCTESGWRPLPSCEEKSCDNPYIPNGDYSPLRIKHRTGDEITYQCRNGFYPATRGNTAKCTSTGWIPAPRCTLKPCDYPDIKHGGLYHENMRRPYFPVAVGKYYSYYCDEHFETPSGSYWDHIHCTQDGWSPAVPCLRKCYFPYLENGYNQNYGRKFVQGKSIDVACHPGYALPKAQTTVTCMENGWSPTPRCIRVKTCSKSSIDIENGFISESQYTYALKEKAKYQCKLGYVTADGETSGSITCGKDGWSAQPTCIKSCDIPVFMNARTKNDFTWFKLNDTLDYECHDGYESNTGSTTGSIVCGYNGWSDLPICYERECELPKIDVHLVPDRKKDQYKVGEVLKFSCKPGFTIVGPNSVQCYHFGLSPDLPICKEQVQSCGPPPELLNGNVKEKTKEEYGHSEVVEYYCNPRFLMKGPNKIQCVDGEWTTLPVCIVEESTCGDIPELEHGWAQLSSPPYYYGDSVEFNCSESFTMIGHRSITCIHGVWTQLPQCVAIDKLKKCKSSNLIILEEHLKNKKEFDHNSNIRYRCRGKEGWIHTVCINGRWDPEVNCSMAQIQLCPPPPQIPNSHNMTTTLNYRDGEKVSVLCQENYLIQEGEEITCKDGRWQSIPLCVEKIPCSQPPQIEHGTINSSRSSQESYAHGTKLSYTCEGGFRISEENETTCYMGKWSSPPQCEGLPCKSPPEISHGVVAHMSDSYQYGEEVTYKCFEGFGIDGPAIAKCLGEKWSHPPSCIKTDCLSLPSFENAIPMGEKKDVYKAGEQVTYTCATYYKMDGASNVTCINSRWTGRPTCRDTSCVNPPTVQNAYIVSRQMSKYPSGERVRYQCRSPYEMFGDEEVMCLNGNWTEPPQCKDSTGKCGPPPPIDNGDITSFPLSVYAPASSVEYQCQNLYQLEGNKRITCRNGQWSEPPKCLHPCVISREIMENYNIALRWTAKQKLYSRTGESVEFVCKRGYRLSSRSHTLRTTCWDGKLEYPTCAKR

complement factor H (FH) = molecular target: T3, complement factor H (FH) (UniProt P08603 19-1231); assay: SPR; BIAcore 3000; TSP-1 bound covalently to CM5 chips at 0.1 μM; complement proteins flowed at 12.3, 37.03, 111.1, 333.3, 1,000 nM in PBS plus 0.05% Tween 20; 1:1 Langmuir binding model; average of 3 measurements
T3 construct: Complement factor H, obtained from Complement Technologies; source: bought: Complement Technologies
T3 sequence (P08603 19-1231): as above

complement C5 = molecular target: T4, complement C5 (UniProt P01031 19-673; P01031 678-1676); assay: as above
T4 construct: Complement C5 beta chain; Complement C5 alpha chain; source: bought: Complement Technologies
T4 sequence (P01031 19-673, chain 1 of 2): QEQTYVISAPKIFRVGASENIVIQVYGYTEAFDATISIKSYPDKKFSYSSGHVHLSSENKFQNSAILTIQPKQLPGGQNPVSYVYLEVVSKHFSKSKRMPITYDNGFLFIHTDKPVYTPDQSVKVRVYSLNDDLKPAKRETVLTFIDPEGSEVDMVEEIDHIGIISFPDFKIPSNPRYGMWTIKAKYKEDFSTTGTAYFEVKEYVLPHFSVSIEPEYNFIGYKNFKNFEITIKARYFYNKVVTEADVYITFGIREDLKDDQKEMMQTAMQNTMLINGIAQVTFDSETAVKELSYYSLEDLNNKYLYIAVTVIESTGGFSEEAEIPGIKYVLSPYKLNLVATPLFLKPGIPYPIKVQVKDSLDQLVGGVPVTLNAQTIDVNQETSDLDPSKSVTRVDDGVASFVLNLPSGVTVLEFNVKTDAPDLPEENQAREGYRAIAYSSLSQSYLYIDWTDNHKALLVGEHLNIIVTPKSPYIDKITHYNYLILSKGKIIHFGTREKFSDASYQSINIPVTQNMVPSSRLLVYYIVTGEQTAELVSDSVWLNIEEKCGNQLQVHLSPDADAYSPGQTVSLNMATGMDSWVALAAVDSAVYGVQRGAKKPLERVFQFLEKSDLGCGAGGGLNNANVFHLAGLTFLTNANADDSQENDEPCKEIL
T4 sequence (P01031 678-1676, chain 2 of 2): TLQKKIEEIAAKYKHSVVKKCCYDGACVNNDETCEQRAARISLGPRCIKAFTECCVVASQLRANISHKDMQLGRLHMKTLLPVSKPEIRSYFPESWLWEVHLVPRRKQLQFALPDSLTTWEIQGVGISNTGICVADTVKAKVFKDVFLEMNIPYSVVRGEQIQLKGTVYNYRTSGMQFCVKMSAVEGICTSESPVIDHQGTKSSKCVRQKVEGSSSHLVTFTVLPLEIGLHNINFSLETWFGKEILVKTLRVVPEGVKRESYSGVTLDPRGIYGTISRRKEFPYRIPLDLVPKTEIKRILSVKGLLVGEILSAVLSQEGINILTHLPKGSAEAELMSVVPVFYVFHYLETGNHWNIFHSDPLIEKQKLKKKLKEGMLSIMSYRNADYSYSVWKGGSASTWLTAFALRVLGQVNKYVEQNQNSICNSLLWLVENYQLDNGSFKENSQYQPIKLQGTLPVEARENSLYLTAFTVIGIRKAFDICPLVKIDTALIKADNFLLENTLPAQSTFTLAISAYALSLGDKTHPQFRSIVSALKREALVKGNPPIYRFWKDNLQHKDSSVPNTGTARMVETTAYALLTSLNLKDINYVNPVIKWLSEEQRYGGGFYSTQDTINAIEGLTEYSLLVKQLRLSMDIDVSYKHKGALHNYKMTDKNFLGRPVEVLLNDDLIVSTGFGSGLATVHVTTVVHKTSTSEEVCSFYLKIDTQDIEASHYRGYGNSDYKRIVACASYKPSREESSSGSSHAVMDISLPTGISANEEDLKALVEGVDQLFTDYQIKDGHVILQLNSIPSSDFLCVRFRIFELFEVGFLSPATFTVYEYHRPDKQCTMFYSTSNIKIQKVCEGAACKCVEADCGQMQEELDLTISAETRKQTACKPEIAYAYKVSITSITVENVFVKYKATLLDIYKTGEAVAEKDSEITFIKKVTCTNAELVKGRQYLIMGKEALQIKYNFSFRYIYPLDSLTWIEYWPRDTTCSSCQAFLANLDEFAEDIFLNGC

complement C3 = molecular target: T5, complement C3 (UniProt P01024 23-667; P01024 672-1663); assay: as above
T5 construct: Complement C3 beta chain (75 kDa), cut from the C3 precursor; Complement C3 alpha chain (110 kDa), cut from the C3 precursor; source: bought: Complement Technologies

complement C8 [2] = molecular target: T6, complement C8 (UniProt P07357 31-584; P07358 55-591; P07360 21-202); assay: as above
T6 construct: Complement component C8 alpha chain; Complement component C8 beta chain; Complement component C8 gamma chain; source: bought: Complement Technologies; copies: + +
T6 sequence (P07357 31-584, chain 1 of 3): as the sequence (P07357 31-584, chain 1 of 3) above
T6 sequence (P07358 55-591, chain 2 of 3): as the sequence (P07358 55-591, chain 2 of 3) above
T6 sequence (P07360 21-202, chain 3 of 3): as the sequence (P07360 21-202, chain 3 of 3) above

Row | Binder | Kd (complement C8 [1]) | Kd (complement factor H) | Kd (complement factor H (FH)) | Kd (complement C5) | Kd (complement C3) | Kd (complement C8 [2])
1 | recombinant full-length thrombospondin-1 (natural protein, Thrombospondin-1, human cDNA from Sinobiological (HG10508-UT), subcloned into pFastbac1 behind a gp67 signal peptide for secretion; The gp67 signal peptide stands in place of or before the native one; also called TSP-1; source: Spodoptera frugiperda 9 cells (baculovirus), purified from cell supernatants via Ni-NTA columns; not shown: 10xHis, N-terminal, kept) not shown | 310 nM | 203 nM | – | – | – | –
2 | recombinant full-length thrombospondin-1 (TSP-1) (natural protein, Thrombospondin-1, human cDNA (Sinobiological HG10508-UT) subcloned into pFastbac1 with a gp67 signal peptide for secretion and an N-terminal 10xHis tag; called recombinant full-length TSP-1; Secreted through a gp67 signal peptide; also called recombinant TSP-1; source: Spodoptera frugiperda 9 cells (baculovirus), purified from cell supernatants via Ni-NTA columns; not shown: 10xHis, N-terminal, …) not shown | – | – | 203 nM | 47 nM | 127 nM | 311 nM
